Among the targets are p85α nSH2 (325-430) (human, UniProt P27986 325-430); p85β nSH2 (312-425) (mouse, UniProt O08908 312-425); p85α cSH2 (614-720) (human, UniProt P27986 614-720); p85α nSH2 R358M (human, UniProt P27986 325-430, R358M).
Common to all, as to experiment: FP
The target in the next assay is T1, p85β cSH2 (603-712) (mouse, UniProt O08908 603-712).
T1 chain: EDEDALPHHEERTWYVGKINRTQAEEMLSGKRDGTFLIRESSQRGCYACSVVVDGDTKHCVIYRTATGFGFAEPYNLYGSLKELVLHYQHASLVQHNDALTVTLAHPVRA

Where no end group is shown, it is not given here. [ ]: non-standard residue; d: D form. The star is where a group is joined. 5FAM = O=C1OC2(c3ccc(O)cc3Oc3cc(O)ccc32)c2ccc(C(=O)*)cc21; pY = N[C@@H](Cc1ccc(OP(=O)(O)O)cc1)C(=O)O

p85α cSH2 (614-720), sequence (P27986 614-720): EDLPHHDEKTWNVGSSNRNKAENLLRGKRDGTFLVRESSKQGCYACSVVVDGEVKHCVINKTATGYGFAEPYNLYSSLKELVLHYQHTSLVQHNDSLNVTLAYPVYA
p85α nSH2 (325-430), sequence (P27986 325-430): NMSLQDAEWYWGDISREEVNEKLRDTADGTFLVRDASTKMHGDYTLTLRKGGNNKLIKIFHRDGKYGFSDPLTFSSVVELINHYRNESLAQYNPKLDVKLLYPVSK
p85β nSH2 (312-425), sequence (O08908 312-425): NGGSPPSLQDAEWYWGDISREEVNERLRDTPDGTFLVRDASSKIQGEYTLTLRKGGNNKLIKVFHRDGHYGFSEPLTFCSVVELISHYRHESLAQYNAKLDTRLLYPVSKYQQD
p85α nSH2 R358M, sequence (P27986 325-430 R358M): as the sequence (P27986 325-430) above, with R34M counted along it

B1: p85β pY607 peptide, [5-FAM]-TEDQ-[pY]-SLMEDE (peptide)
peptide: 5FAM-TEDQ[pY]SLMEDE
As to B1, the Kd – broadly, the free concentration of one partner at which half of the binding sites on the other are occupied at equilibrium, for simple one-to-one binding – with p85α nSH2 (325-430) worked out at 82 nM; with p85β nSH2 (312-425), 52 nM; with p85α cSH2 (614-720), 656 nM; in the assay with p85α nSH2 R358M, 2900 nM.

B2: CD28 peptide, [5-FAM]-SD-[pY]-MNMTP (peptide)
peptide: 5FAM-SD[pY]MNMTP
Consider B2, for which the Kd is 100 nM with p85β cSH2 (603-712) and 43 nM with p85α cSH2 (614-720).

B3: p85α pY607 peptide, [5-FAM]-TEDQ-[pY]-SLVEDE (peptide)
peptide: 5FAM-TEDQ[pY]SLVEDE
For the molecule B3, the results for the Kd in the assay with p85α nSH2 (325-430), with p85β nSH2 (312-425) and with p85α cSH2 (614-720) were 2400 nM, 9000 nM and 84000 nM, respectively.

The values above are taken from paper doi:10.1101/791277 (2019).
